Results as given in patent publication US20120219562A1 (AbbVie / Abbott, published 2012).
Where a chain is given by its changes, count along the chain named. Names may count otherwise. “And” between values parts separate entries of the source, which are not always exact repeats. Equal values may be shown once.

Legend:
[1] = biological target: T1, human interleukin 12 (human, UniProt P29459 23-219; P29460 23-328); assay: SPR (BIAcore)
T1 construct: heterodimer of p35 and p40 linked by a disulfide bridge; also called hIL-12; IL-12
T1 sequence (looked up) 1: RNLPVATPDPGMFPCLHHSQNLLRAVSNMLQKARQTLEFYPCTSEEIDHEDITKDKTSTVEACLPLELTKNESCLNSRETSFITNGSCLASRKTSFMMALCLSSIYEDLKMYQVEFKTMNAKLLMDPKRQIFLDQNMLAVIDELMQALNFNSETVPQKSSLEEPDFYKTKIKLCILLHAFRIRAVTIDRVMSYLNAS
T1 sequence (looked up) 2: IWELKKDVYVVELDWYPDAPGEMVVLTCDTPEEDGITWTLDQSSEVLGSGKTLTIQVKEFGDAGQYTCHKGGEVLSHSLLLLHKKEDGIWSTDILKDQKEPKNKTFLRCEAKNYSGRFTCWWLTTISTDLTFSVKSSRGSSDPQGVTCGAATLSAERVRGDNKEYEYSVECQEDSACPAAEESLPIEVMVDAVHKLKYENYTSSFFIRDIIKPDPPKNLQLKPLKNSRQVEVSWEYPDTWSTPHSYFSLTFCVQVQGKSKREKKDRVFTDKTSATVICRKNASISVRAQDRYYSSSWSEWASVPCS

[2] = biological target: T1, human interleukin 12; assay: cell-based or functional assay
[3] = biological target: T1, human interleukin 12; assay: RB assay (IL-12 receptor binding)
[4] = biological target: T2, human interleukin 12 (p70 heterodimer of p35 and p40) (human, UniProt P29459 23-219; P29460 23-328); assay: surface plasmon resonance (BIAcore)
T2 construct: Recombinant human IL-12; also called hIL-12; IL-12
T2 sequence (looked up) 1: T1 sequence (looked up) 1
T2 sequence (looked up) 2: T1 sequence (looked up) 2

[5] = biological target: T2, human interleukin 12 (p70 heterodimer …); assay: SPR (BIAcore), off-rate
[6] = biological target: T2, human interleukin 12 (p70 heterodimer …); assay: SPR (BIAcore), off-rate; remark: listed apart in the source
[7] = biological target: T2, human interleukin 12 (p70 heterodimer …); assay: SPR (BIAcore), off-rate; remark: listed apart in the source
[8] = biological target: T2, human interleukin 12 (p70 heterodimer …); assay: SPR (BIAcore), off-rate; remark: listed apart in the source
[9] = biological target: T2, human interleukin 12 (p70 heterodimer …); assay: SPR (BIAcore), off-rate; remark: listed apart in the source
[10] = biological target: T2, human interleukin 12 (p70 heterodimer …); assay: SPR (BIAcore), off-rate; remark: listed apart in the source
[11] = biological target: T2, human interleukin 12 (p70 heterodimer …); assay: SPR (BIAcore), off-rate; remark: listed apart in the source
[12] = biological target: T3, human interleukin 12 (recombinant human IL-12, p70 heterodimer) (human, UniProt P29459 23-219; P29460 23-328); assay: cell-based or functional assay
T3 sequence (looked up) 1: T1 sequence (looked up) 1
T3 sequence (looked up) 2: T1 sequence (looked up) 2

[13] = biological target: T3, human interleukin 12 (recombinant human …); assay: cell-based or functional assay; remark: listed apart in the source
[14] = biological target: T3, human interleukin 12 (recombinant human …); assay: SPR (BIAcore), off-rate from human IL-12
[15] = biological target: T3, human interleukin 12 (recombinant human …); assay: RB assay: inhibition of IL-12 binding to its receptor

B1: 136-14 (antibody, V domains shown)
VH: QVQLVQSGGGVVQPGRSLRLSCAASGFTFSSYGMHWVRQAPGKGLEWVAFIRYDGSNKYYADSVKGRFTISRDNSKNTLYLQMKSLRAEDTAVYYCTTHGSHDNWGQGTMVTVSS
VL: SYVLTQPPSVSGTPGQRVTISCSGGRSNIGSNTVKWYQQLPGTAPKLLIYGNDQRPSGVPDRFSGSKSGTSASLAITGVQAEDEADYYCQTYDRGFTGSRVFGTGTKVTVL
koff [1]: 0.0011 s⁻¹ | PHA assay IC50 [2]: 100 nM | IC50 [3]: 0.3 nM

B2: 136-21 (antibody, V domains shown)
VH: B1 VH
VL: B1 VL with T91S, R94N
koff [1]: 0.00042 s⁻¹ | IC50 [3]: 2 nM

B3: 73-B1 (antibody, V domains shown)
VH: B1 VH with H99S, H102Y, N104Y
VL: SYVLTQPPSVSGTPGQRVTISCSGGRSNIGSNTVKWYQQLPGTAPKLLIYGNDQRPSGVPDRFSGSKSGTSASLAITGVQAEDEADYYCHSYDSDFTGSRVFGTGTKVTVLG
koff [1]: 0.00325 s⁻¹ | IC50 [3]: > 10 nM

B4: 73-C1 (antibody, V domains shown)
VH: B1 VH with H99S, H102Y, N104Y
VL: B3 VL with D95R
koff [1]: 0.00271 s⁻¹ | IC50 [3]: > 10 nM

B5: Y61 human anti-hIL-12 antibody (antibody, V domains shown)
VH: B1 VH with T97K
VL: B3 VL with H90Q, S94R, D95G, F96T, T97H, G98P, S99A, R100L, V101L
koff [4]: ~0.0002 s⁻¹ | koff [5]: 0.000168 s⁻¹ and 0.000337 s⁻¹ and 0.000178 s⁻¹ | koff [6]: 0.000204 s⁻¹ and 0.000206 s⁻¹ and 0.000151 s⁻¹ and 0.000178 s⁻¹ | koff [7]: 0.00031 s⁻¹ and 0.000385 s⁻¹ | koff [8]: 0.000397 s⁻¹ and 0.000375 s⁻¹ and 0.000255 s⁻¹ and 0.000143 s⁻¹ | koff [9]: 0.000403 s⁻¹ | koff [10]: 0.000211 s⁻¹ and 0.000229 s⁻¹ and 0.000241 s⁻¹ | koff [11]: 0.000215 s⁻¹ and 0.000297 s⁻¹

B6: 136-17 (antibody, V domains shown)
VH: B1 VH
VL: B1 VL with T91S, R94W, G95N
koff [1]: 2.9e-05 s⁻¹ | PHA assay IC50 [2]: 7 nM | IC50 [3]: 2 nM

B7: 136-15M1 (antibody, V domains shown)
VH: B1 VH with T97A, T98K
VL: B3 VL with H90Q, S94R, D95G
IC50 [3]: 0.4 nM

B8: 136-15 (antibody, V domains shown)
VH: B1 VH with T97K
VL: B3 VL with G25S, H90Q, S91T, S94K, D95G, R100S
PHA assay IC50 (M) p70:p40 1:0 [12]: 2e-09 M

B9: 136-10 (antibody, V domains shown)
VH: B1 VH with N104D
VL: B1 VL with T91S
koff [1]: 0.0014 s⁻¹ | IC50 [3]: 2 nM

B10: Y61-L94Y IgG (antibody, V domains shown)
VH: B1 VH with T97K
VL: QSVLTQPPSVSGAPGQRVTISCSGSRSNIGSNTVKWYQQLPGTAPKLLIYGNDQRPSGVPDRFSGSKSGTSASLAITGLQAEDEADYYCQSYDRYTHPALLFGTGTKVTVL
IFN gamma IC50 [13]: 0.04 nM | PHA assay IC50 [13]: 0.05 nM | koff [14]: 0.000127 s⁻¹ | IC50 [15]: 0.06 nM

B11: Y61 IgG (antibody, V domains shown)
VH: B1 VH with T97K
VL: B3 VL with H90Q, S94R, D95G, F96T, T97H, G98P, S99A, R100L, V101L
notes: IgG
PHA assay IC50 [13]: 0.13 nM | PHA assay IC50 (M) p70:p40 1:0 [12]: 1.8e-10 M | PHA assay IC50 (M) p70:p40 1:50 [12]: 1.8e-10 M | koff [14]: 0.00015 s⁻¹

B12: 136-16 (antibody, V domains shown)
VH: B1 VH
VL: B1 VL with T91S, G95R
koff [1]: 0.00061 s⁻¹ | PHA assay IC50 [2]: 5 nM | IC50 [3]: 0.3 nM

B13: 73-B6 (antibody, V domains shown)
VH: B1 VH with H99S, H102Y, N104Y
VL: B3 VL with S94N, D95R
koff [1]: 0.00251 s⁻¹ | IC50 [3]: > 10 nM

B14: Y61-L50Y* IgG (antibody, V domains shown)
VH: B1 VH with T97K
VL: B10 VL with G51Y, Y95G
IFN gamma IC50 [13]: 0.03 nM | PHA assay IC50 [13]: 0.02 nM | koff [14]: 6.98e-05 s⁻¹

B15: SEQ ID NO: 533 (Y61, P at L53) (antibody, V domains shown)
VH: B1 VH with T97K
VL: B3 VL with Q54P, H90Q, S94R, D95G, F96T, T97H, G98P, S99A, R100L, V101L
koff [11]: 0.000974 s⁻¹

B16: SEQ ID NO: 530 (Y61, T at L53) (antibody, V domains shown)
VH: B1 VH with T97K
VL: B3 VL with Q54T, H90Q, S94R, D95G, F96T, T97H, G98P, S99A, R100L, V101L
koff [11]: 0.000834 s⁻¹

B17: J695 (Y61-L94Y-L50Y IgG*) (antibody, V domains shown)
VH: B1 VH with Q6E, K84N, T97K
VL: QSVLTQPPSVSGAPGQRVTISCSGSRSNIGSNTVKWYQQLPGTAPKLLIYYNDQRPSGVPDRFSGSKSGTSASLAITGLQAEDEADYYCQSYDRYTHPALLFGTGTKVTVLG
notes: also called ABT-874
koff [14]: 5.14e-05 s⁻¹

B18: SEQ ID NO: 532 (Y61, I at L53) (antibody, V domains shown)
VH: B1 VH with T97K
VL: B17 VL with Q1S, S2Y, A13T, S25G, Y51G, Q54I, L79V, Y95G
koff [11]: 0.000855 s⁻¹

B19: SEQ ID NO: 528 (Y61, R at L53) (antibody, V domains shown)
VH: B1 VH with T97K
VL: B17 VL with Q1S, S2Y, A13T, S25G, Y51G, Q54R, L79V, Y95G
koff [11]: 0.000614 s⁻¹

B20: SEQ ID NO: 531 (Y61, A at L53) (antibody, V domains shown)
VH: B1 VH with T97K
VL: B17 VL with Q1S, S2Y, A13T, S25G, Y51G, Q54A, L79V, Y95G
koff [11]: 0.000554 s⁻¹

B21: Joe9 wt IgG1 (antibody, V domains shown)
VH: not shown
VL: SYVLTQPPSVSGTPGQRVTISCSGGRSNIGSNTVKWYQQLPGTAPKLLIYGNDQRPSGVPDRFSGSKSGTSASLAITGVQAEDEADYYCQSYDSSLRG
PHA assay IC50 [2]: 500 nM
